Entries after “also recorded” stand apart in the source; their conditions may differ. Like-named read-outs stand apart in the source and are kept apart here.
What was measured:
[1] = tested on: ovalbumin challenged mice; format: in vivo; conditions: 24 h after repeated ovalbumin challenge, 10 μg intra-tracheal
Description: Allergic inflammation in the lung is induced by 2 intraperitoneal injections of 10 μg of ovalbumin (OVA) in 1 mg of alum with 7 days interval between them. Control animals receive alum only. On day 14, all animals are exposed to an aerosol of OVA for 25 minutes, once a day for 3 consecutive days. All measurements are performed 24 h after the last antigen challenge. […]

[2] = tested on: human peripheral blood monocytes; assay: Human monocyte assay, TNF-alpha secretion (ELISA); format: cell-based
Description: We have established a human monocyte assay to compare the efficacy of Cpn60.1 and various peptide sequences of this protein. Human monocytes were obtained by density-dependent centrifugation from peripheral venus blood from healthy volunteers. Monocytes were then isolated and purified with cells adjusted to a density of 2×10^6 cells/ml which were incubated for 1 hour 30 minutes. The plates were then washed twice with Hanks solution. 0.9 ml of RPMI medium was then added to each well followed by polymyxin-B (5 μg/ml). 30 minutes later, 0.1 ml of Cpn at 0.0001-1000 ng/ml or peptides were added to the wells. Cells were then incubated at 37° C., 5% CO2 for 1 hour. The medium was removed and cells washed. 0.9 ml of medium was added to each well followed by 0.1 ml of LPS (1 ng/ml) and left to incubate for 24 hours. Supernatant was taken from each well and frozen for Enzyme Linked Immunosorbent Assay (ELISA).

[3] = tested on: co-culture of dendritic cells and RD11.10 T cells; assay: IL4 release in dendritic cell / T cell co-culture; format: cell-based, mice; conditions: DC pre-treated 10 μg/ml 24 h; […]; FIG. 7
Description: (§1) Bone marrow cells from Balb/c mice were collected and cultured for 6 days in complete Dulbecco's Modified Eagle Medium containing 8 ng/ml of mouse GM-CSF. On day 6 of culture, the cells were collected, re-plated for 1 hour for removal of adherent cells, washed and plated at […] in 6-wells plates for analysis of surface markers expression and transference experiments and at 10^5 cells/well in 96-wells plate for cytokine measurements. In other experiments, cells were incubated at 10^6 cells/well for 24 h with the chaperonins and then another further 24 h with LPS (10 ng/ml).
DC pre-treated with Cpn60.1 (10 μg/ml) or Cpn10 (10 μg/ml) for 24 h suppressed the release of IL4 from RD11.10 T cells in a DC/T cell co-culture. After 6 days of culture, cells were stimulated with anti-CD3 and anti-CD28 for further 24 hours and supernatants collected. IL5 and IL10 were not detected in this culture (FIG. 7).

[4] = tested on: spleen cells from TLR2KO mice; assay: IL-12 release in spleen cells from TLR2KO mice; format: cell-based; conditions: FIG. 9
[5] = tested on: spleen cells of C57Bl/6 mice; format: cell-based, C57BI/6 mice; conditions: 0.001-30 μg/ml, 24 h, polymixin B 5 μg/ml; FIG. 8
LPS-treated mice = assay: LPS-induced neutrophil recruitment to the lung (non-allergic inflammation); format: in vivo, Female Balb/c mice
Description: Female Balb/c mice were pre-treated intranasally with Cpn60.1 (1 μg/ml) for 3 days in the absence or following pre-treatment with polymyxin B (5 μg/ml) to rule out any effect of LPS contamination. 30 minutes after the last dose of Cpn60.1, mice were treated with LPS (1 μg/ml). Neutrophil influx and TNF-alpha release in the lungs were determined by bronchoalveolar lavage 24 hours later.

[6] = tested on: bone marrow dendritic cells; assay: IL-12 production by bone marrow dendritic cells pulsed with chaperonins; format: cell-based, Balb/c mice; conditions: 48 h; Cpn60.1 0.1-30 μg/ml, Cpn10 10 μg/ml; FIG. 5
Description: as §1

[7] = tested on: ovalbumin challenged mice; format: in vivo; conditions: for recruitment of total cells to the airways / recruitment of eosinophils to the airways: intra-nasal; for recruitment of total cells to the airways: Cpn60.1 1 μg, FIG. 10; for recruitment of eosinophils to the airways: Cpn60.1 0.1 and 1 μg, peptide 4 0.005 μg, FIG. 11
[8] = tested on: bone marrow dendritic cells; assay: LPS-induced IL12 production by dendritic cells after chaperonin pre-incubation; format: cell-based, Balb/c mice; conditions: pre-incubation 24 hours, then LPS (10 ng/ml) further 24 h; FIG. 6
Description: as §1
Pre-incubation of DC's with Cpn60.1 but not Cpn10 for 24 hours inhibited IL12 production induced by LPS (FIG. 6).

[9] = tested on: spleen cells collected from TLR4KO mice; assay: IL-12 release in spleen cells from TLR4KO mice; format: cell-based; conditions: FIG. 9
[10] = tested on: ovalbumin challenged mice; conditions: previously demonstrated, Riffo-Vasquez et al. 2004; cited from earlier work
UV-treated rats = assay: Ultra Violet Burn-induced hyperalgesia; format: in vivo, male Wistar rats; conditions: compared to the group treated with ibuprofen; FIGS. 16 and 17
Description: (§2) The effect of Cpn60.1 has been investigated in 2 models of pain, Complete Freund's Adjuvant (CFA)-induced hyperalgesia and Ultra Violet Burn-induced hyperalgesia. Mechanical hyperalgesia was measured using Von Frey filaments applied with increasing force to the hind paw. Thermal hyperalgesia was measured using the time taken to withdraw the hind paw from a heat source. Cpn60.1 (50 & 500 μg/kg) was chronically administered to male Wistar rats (200 g) subcutaneously for 7 days. Every alternate day behavioural responses to mechanical and thermal allodynia were recorded. After baseline recordings, CFA was injected in to the hind paw to induce hyperalgesia and behavioural tests were performed. […] Another model of hyperalgesia was tested, this time using UV burn to induce allodynia. Again, Cpn60.1 had little effect at inhibiting hyperalgesia compared to the group treated with ibuprofen (FIGS. 16 and 17).

CFA-treated rats = assay: Complete Freund's Adjuvant (CFA)-induced hyperalgesia; format: in vivo, male Wistar rats; conditions: 50 & 500 μg/kg subcutaneously for 7 days; compared to ibuprofen 100 mg/kg; FIGS. 14 and 15
Description: as §2

B1: Cpn60.1: chaperonin protein Chaperonin 60.1 of Mycobacterium tuberculosis, amino acid sequence shown in FIG. 25 (protein)
chain: MSKLIEYDETARRAMEVGMDKLADTVRVTLGPRGRHVVLAKAFGGPTVTNDGVTVAREIELEDPFEDLGAQLVKSVATKTNDVAGDGTTTATILAQALIKGGLRLVAAGVNPIALGVGIGKAADAVSEALLASATPVSGKTGIAQVATVSSRDEQIGDLVGEAMSKVGHDGVVSVEESSTLGTELEFTEGIGFDKGFLSAYFVTDFDNQQAVLEDALILLHQDKISSLPDLLPLLEKVAGTGKPLLIVAEDVEGEALATLVVNAIRKTLKAVAVKGPYFGDRRKAFLEDLAVVTGGQVVNPDAGMVLREVGLEVLGSARRVVVSKDDTVIVDGGGTAEAVANRAKHLRAEIDKSDSDWDREKLGERLAKLAGGVAVIKVGAATETALKERKESVEDAVAAAKAAVEEGIVPGGGASLIHQARKALTELRASLTGDEVLGVDVFSEALAAPLFWIAANAGLDGSVVVNKVSELPAGHGLNVNTLSYGDLAADGVIDPVKVTRSAVLNASSVARMVLTTETVVVDKPAKAEDHDHHHGHAH
- bronchial hyper-responsiveness to methacholine ([1]; FIG. 2): reduced; also recorded: significantly inhibit
- levels of cytokines in BAL fluid (cytokine release in the lung) ([1]; FIG. 3): inhibited; also recorded: significantly inhibit
- recruitment of eosinophils to the airways (airways inflammation) ([1]; percentage of eosinophils vs ovalbumin alone, FIG. 1): inhibited; also recorded: significantly inhibit
- TNF-alpha release induced by LPS, percent of control values ([2]; Cpn60.1 vs Cpn60.1 peptides, FIG. 21): suppress
- concentration of maximum inhibition of LPS-induced TNF-α secretion ([2]; although not significant, FIG. 18): 1 ng/mL
- TNF-alpha secretion induced by the substance alone ([2]; no LPS): able to stimulate human monocytes to induce TNF-alpha secretion
- LPS-induced TNF-alpha secretion in the presence of polymyxin-B ([2]; polymyxin-B 5 μg/ml, FIG. 19): suppresses
- LPS-induced TNF-alpha secretion ([2]; pre-treatment 1 hour, then LPS (1 ng/ml) 24 hours, FIGS. 18, 20): suppresses; also recorded: inhibited TNF-alpha secretion at low doses
- levels of IL4 in DC/T cell co-culture [3]: suppressed
- IL-12 response of TLR2KO spleen cells [4]: refractory
- IL-12 release [5]: induce IL-12 release
- TNF-alpha secretion in the lungs (LPS-treated mice; intranasal 1 μg/ml for 3 days, LPS 1 μg/ml, lavage 24 hours later, FIG. 24): not significantly attenuated
- LPS-induced neutrophilia (neutrophils recovered from lavage) (LPS-treated mice; intranasal 1 μg/ml for 3 days, LPS 1 μg/ml, lavage at 24 hours, FIG. 24): reduced LPS-induced neutrophilia; also recorded: suppression in neutrophilia
- neutrophil recruitment with the substance alone (LPS-treated mice; no LPS, FIG. 23): No neutrophil recruitment
- effect of polymyxin B pre-treatment on suppression of neutrophil recruitment (LPS-treated mice; polymyxin B (5 μg/ml)): made no difference
- IL12 production by dendritic cells [6]: produced IL12 in a dose-dependant manner; also recorded: induced the release of IL-12 in a dose dependent-manner
- recruitment of total cells to the airways [7]: significantly inhibited
- recruitment of total cells to the airways ([7]; listed as Cpn60): inhibited
- recruitment of eosinophils to the airways [7]: significant reduction
- recruitment of eosinophils to the airways ([7]; listed as Cpn60): inhibited
- levels of IL-5 in BAL fluid ([7]; mouse, in vivo): not significantly inhibited; also recorded: not caused by an interference with the production of IL-5
- IL12 production induced by LPS [8]: inhibited
- IL-12 response of TLR4KO spleen cells compared to wild type C57bl/6 [9]: reduced response; also recorded: significantly refractory
- lung inflammation in a murine model of asthma [10]: suppressed
- UV burn-induced hyperalgesia (mechanical and thermal) (UV-treated rats): little effect
- CFA-induced hyperalgesia (mechanical and thermal) (CFA-treated rats): Neither dose of Cpn60.1 reduced CFA-induced hyperalgesia

From patent US9085632B2, “Biological materials and uses thereof” (PEPTINNOVATE LIMITED, priority 2008, dated 2015)
